Measured values taken from IntAct's records for PubMed 31515488.

B1: Protein dispatched homolog 1 (Homo sapiens), Q96F81 (parent)
chain: MAMSNGNNDFVVLSNSSIATSAANPSPLTPCDGDHAAQQLTPKEATRTKVSPNGCLQLNGTVKSSFLPLDNQRMPQMLPQCCHPCPYHHPLTSHSSHQECHPEAGPAAPSALASCCMQPHSEYSASLCPNHSPVYQTTCCLQPSPSFCLHHPWPDHFQHQPVQQHIANIRPSRPFKLPKSYAALIADWPVVVLGMCTMFIVVCALVGVLVPELPDFSDPLLGFEPRGTAIGQRLVTWNNMVKNTGYKATLANYPFKYADEQAKSHRDDRWSDDHYEREKREVDWNFHKDSFFCDVPSDRYSRVVFTSSGGETLWNLPAIKSMCNVDNSRIRSHPQFGDLCQRTTAASCCPSWTLGNYIAILNNRSSCQKIVERDVSHTLKLLRTCAKHYQNGTLGPDCWDMAARRKDQLKCTNVPRKCTKYNAVYQILHYLVDKDFMTPKTADYATPALKYSMLFSPTEKGESMMNIYLDNFENWNSSDGVTTITGIEFGIKHSLFQDYLLMDTVYPAIAIVIVLLVMCVYTKSMFITLMTMFAIISSLIVSYFLYRVVFHFEFFPFMNLTALIILVGIGADDAFVLCDVWNYTKFDKPHAETSETVSITLQHAALSMFVTSFTTAAAFYANYVSNITAIRCFGVYAGTAILVNYVLMVTWLPAVVVLHERYLLNIFTCFKKPQQQIYDNKSCWTVACQKCHKVLFAISEASRIFFEKVLPCIVIKFRYLWLFWFLALTVGGAYIVCINPKMKLPSLELSEFQVFRSSHPFERYDAEYKKLFMFERVHHGEELHMPITVIWGVSPEDNGNPLNPKSKGKLTLDSSFNIASPASQAWILHFCQKLRNQTFFYQTDEQDFTSCFIETFKQWMENQDCDEPALYPCCSHWSFPYKQEIFELCIKRAIMELERSTGYHLDSKTPGPRFDINDTIRAVVLEFQSTYLFTLAYEKMHQFYKEVDSWISSELSSAPEGLSNGWFVSNLEFYDLQDSLSDGTLIAMGLSVAVAFSVMLLTTWNIIISLYAIISIAGTIFVTVGSLVLLGWELNVLESVTISVAVGLSVDFAVHYGVAYRLAPDPDREGKVIFSLSRVGSAMAMAALTTFVAGAMMMPSTVLAYTQLGTFMMLIMCISWAFATFFFQCMCRCLGPQGTCGQIPLPKKLQCSAFSHALSTSPSDKGQSKTHTINAYHLDPRGPKSELEHEFYELEPLASHSCTAPEKTTYEETHICSEFFNSQAKNLGMPVHAAYNSELSKSTESDAGSALLQPPLEQHTVCHFFSLNQRCSCPDAYKHLNYGPHSCQQMGDCLCHQCSPTTSSFVQIQNGVAPLKATHQAVEGFVHPITHIHHCPCLQGRVKPAGMQNSLPRNFFLHPVQHIQAQEKIGKTNVHSLQRSIEEHLPKMAEPSSFVCRSTGSLLKTCCDPENKQRELCKNRDVSNLESSGGTENKAGGKVELSLSQTDASVNSEHFNQNEPKVLFNHLMGEAGCRSCPNNSQSCGRIVRVKCNSVDCQMPNMEANVPAVLTHSELSGESLLIKTL
partner: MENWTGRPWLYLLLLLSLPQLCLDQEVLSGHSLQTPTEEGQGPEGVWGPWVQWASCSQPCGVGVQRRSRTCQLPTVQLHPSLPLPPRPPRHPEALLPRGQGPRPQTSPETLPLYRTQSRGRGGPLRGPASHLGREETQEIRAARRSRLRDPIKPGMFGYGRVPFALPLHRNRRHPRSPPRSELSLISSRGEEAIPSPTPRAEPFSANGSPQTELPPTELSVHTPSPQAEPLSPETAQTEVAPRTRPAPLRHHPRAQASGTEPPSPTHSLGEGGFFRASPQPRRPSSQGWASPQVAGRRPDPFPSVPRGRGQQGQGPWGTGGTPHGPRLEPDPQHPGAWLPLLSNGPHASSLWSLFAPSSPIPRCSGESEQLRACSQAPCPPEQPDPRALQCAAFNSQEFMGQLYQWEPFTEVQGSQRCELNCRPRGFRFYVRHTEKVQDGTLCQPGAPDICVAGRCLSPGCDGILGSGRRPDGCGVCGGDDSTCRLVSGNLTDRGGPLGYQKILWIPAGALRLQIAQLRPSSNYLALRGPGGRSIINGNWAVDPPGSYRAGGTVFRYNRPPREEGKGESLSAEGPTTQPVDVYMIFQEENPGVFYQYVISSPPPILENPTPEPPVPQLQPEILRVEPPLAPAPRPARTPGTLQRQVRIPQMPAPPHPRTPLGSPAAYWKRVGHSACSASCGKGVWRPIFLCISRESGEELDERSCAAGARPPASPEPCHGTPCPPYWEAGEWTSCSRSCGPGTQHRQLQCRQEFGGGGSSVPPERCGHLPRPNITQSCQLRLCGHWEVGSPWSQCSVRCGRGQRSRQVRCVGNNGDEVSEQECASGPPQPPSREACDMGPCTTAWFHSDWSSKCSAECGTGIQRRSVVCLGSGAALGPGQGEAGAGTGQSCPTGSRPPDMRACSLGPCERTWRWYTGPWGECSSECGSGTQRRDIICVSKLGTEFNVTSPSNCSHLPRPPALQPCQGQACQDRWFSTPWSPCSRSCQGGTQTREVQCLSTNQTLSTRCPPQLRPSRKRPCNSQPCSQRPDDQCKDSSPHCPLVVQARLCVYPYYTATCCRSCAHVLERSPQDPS
B2: TBC1 domain family member 22B (Homo sapiens), Q9NU19 (parent)
chain: MAAENSKQFWKRSAKLPGSIQPVYGAQHPPLDPRLTKNFIKERSKVNTVPLKNKKASSFHEFARNTSDAWDIGDDEEEDFSSPSFQTLNSKVALATAAQVLENHSKLRVKPERSQSTTSDVPANYKVIKSSSDAQLSRNSSDTCLRNPLHKQQSLPLRPIIPLVARISDQNASGAPPMTVREKTRLEKFRQLLSSQNTDLDELRKCSWPGVPREVRPITWRLLSGYLPANTERRKLTLQRKREEYFGFIEQYYDSRNEEHHQDTYRQIHIDIPRTNPLIPLFQQPLVQEIFERILFIWAIRHPASGYVQGINDLVTPFFVVFLSEYVEEDVENFDVTNLSQDMLRSIEADSFWCMSKLLDGIQDNYTFAQPGIQKKVKALEELVSRIDEQVHNHFRRYEVEYLQFAFRWMNNLLMRELPLRCTIRLWDTYQSEPEGFSHFHLYVCAAFLIKWRKEILDEEDFQGLLMLLQNLPTIHWGNEEIGLLLAEAYRLKYMFADAPNHYRR
B3: Zinc finger protein 511 (Homo sapiens), Q8NB15 (parent)
chain: MQLPPALCARLAAGPGAAEPLPVERDPAAGAAPFRFVARPVRFPREHQFFEDGDVQRHLYLQDVIMQVADVPEKPRVPAFACQVAGCCQVFDALDDYEHHYHTLHGNVCSFCKRAFPSGHLLDAHILEWHDSLFQILSERQDMYQCLVEGCTEKFKTSRDRKDHMVRMHLYPADFRFDKPKKSRSPASAEAPGDSGERSEGEAMEICSEPVAASPAPAGERRIYRHRIPSTICFGQGAARGFKSNKKKTKQC
partner: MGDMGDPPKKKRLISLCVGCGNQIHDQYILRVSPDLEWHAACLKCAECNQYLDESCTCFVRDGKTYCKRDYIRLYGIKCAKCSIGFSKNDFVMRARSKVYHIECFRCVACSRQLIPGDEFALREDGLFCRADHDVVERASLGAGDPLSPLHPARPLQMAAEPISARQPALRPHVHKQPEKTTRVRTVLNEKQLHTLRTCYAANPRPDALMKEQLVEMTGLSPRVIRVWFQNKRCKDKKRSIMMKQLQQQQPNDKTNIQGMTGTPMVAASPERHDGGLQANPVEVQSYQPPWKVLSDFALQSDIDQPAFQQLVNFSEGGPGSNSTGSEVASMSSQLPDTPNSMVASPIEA
B4: "Delta(3,5)-Delta(2,4)-dienoyl-CoA isomerase, mitochondrial" (Homo sapiens), Q13011 (parent)
chain: MAAGIVASRRLRDLLTRRLTGSNYPGLSISLRLTGSSAQEEASGVALGEAPDHSYESLRVTSAQKHVLHVQLNRPNKRNAMNKVFWREMVECFNKISRDADCRAVVISGAGKMFTAGIDLMDMASDILQPKGDDVARISWYLRDIITRYQETFNVIERCPKPVIAAVHGGCIGGGVDLVTACDIRYCAQDAFFQVKEVDVGLAADVGTLQRLPKVIGNQSLVNELAFTARKMMADEALGSGLVSRVFPDKEVMLDAALALAAEISSKSPVAVQSTKVNLLYSRDHSVAESLNYVASWNMSMLQTQDLVKSVQATTENKELKTVTFSKL

Variants of: B1
Details: with atl4_human ADAMTSL4, Q6UY14

Variant | effect of a mutation on the interaction
E103D | with no effect

Variants of: B2
Details: with tri23_human TRIM23, P36406
Chain of tri23_human TRIM23, P36406 (P36406 whole entry): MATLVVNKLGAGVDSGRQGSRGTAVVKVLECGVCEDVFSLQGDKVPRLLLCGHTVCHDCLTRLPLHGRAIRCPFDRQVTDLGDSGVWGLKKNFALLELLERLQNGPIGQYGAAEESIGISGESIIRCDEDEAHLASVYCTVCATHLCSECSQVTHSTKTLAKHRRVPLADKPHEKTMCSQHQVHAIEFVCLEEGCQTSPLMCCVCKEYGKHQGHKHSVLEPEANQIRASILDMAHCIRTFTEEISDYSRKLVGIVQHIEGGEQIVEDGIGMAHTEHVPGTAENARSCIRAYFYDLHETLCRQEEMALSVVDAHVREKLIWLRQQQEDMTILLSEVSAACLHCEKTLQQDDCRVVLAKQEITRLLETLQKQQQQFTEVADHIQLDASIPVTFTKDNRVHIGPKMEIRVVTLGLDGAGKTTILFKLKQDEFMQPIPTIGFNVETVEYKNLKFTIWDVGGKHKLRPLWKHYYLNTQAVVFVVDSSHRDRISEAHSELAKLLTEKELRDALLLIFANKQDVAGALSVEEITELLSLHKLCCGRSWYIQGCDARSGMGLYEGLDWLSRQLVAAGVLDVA

Variant | effect of a mutation on the interaction
P177A | with no effect

Variants of: B2
Details: with ikzf3_human IKZF3, Q9UKT9
Chain of ikzf3_human IKZF3, Q9UKT9 (Q9UKT9 whole entry): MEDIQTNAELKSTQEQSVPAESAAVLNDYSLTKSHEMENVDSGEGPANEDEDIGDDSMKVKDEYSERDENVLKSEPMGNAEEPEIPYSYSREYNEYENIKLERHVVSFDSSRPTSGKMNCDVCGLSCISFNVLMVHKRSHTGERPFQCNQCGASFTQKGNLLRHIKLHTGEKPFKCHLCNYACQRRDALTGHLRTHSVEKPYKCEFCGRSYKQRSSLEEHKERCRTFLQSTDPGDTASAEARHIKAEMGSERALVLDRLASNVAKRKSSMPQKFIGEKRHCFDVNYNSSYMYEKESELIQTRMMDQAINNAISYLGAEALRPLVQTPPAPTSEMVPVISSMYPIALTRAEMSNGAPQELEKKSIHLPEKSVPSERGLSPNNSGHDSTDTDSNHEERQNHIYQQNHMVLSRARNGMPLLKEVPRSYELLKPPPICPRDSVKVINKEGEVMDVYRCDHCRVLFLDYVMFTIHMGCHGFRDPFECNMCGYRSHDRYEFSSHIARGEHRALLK

Variant | effect of a mutation on the interaction
P177A | with no effect

Variants of: B3
Details: with isl1_human ISL1, P61371

Variant | effect of a mutation on the interaction
D123N | with no effect
S195N | with no effect

Variants of: B4
Details: with traf1_human TRAF1, Q13077
Chain of traf1_human TRAF1, Q13077 (Q13077 whole entry): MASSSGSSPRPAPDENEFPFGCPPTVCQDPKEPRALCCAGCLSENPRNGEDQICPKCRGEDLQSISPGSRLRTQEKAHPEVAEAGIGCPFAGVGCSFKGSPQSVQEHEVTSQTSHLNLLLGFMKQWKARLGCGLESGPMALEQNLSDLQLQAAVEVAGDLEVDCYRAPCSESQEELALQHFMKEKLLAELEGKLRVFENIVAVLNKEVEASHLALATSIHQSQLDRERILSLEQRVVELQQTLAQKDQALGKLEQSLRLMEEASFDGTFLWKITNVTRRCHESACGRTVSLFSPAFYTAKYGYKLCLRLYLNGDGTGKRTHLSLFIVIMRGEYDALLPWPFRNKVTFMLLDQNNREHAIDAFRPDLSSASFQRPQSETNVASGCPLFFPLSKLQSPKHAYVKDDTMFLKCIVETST

Variant | effect of a mutation on the interaction
E41A | with no effect
